{"source": "the supplement of paper PMC10567573", "parents": {"B1": {"name": "LOXL2 (parent)", "chain": "HISSCKLGPQVSLDPMKNVTCENG"}}}
{"variants_of": "B1", "experiment": "protein stability index of a GFP-peptide fusion (GPS, HEK-293T) (PSI 1-6); higher = more stable", "conditions": "c terminus: a fixed tail appended"}
{"variant": "HISSCKLGPQVSLDPMKTVTCENG", "protein stability index": 3.89}
{"variant": "HISSCKLGPQVSLDPMKIVTCENG", "protein stability index": 3.4}
{"variant": "HISSCKLGPQVSLDPMKPVTCENG", "protein stability index": 3.92}
{"variant": "HISSCKLGPQVSLDPMKNVTCENY", "protein stability index": 3.29}
{"variant": "HISSCKLGPQVSLDPMKNVTCENP", "protein stability index": 3.79}
{"variant": "HISSCKLGPQVSLDPMKNVTCENL", "protein stability index": 3.45}
{"variant": "HISSCKLGPQVSLDPMKNVTCENV", "protein stability index": 3.67}
{"variant": "HISSCKLGPQVSLDPMKNVTCENF", "protein stability index": 3.34}
{"variant": "HISSCKLGPQVSLDPMKNVTCENA", "protein stability index": 3.65}
{"variant": "HISSCKLGPQVSLDPMKNVTCENH", "protein stability index": 3.94}
{"variant": "HISSCKLGPQVSLDPMKNVTCENK", "protein stability index": 3.82}
{"variant": "HISSCKLGPQVSLDPMKNVTCEND", "protein stability index": 4.01}
{"variant": "HISSCKLGPQVSLDPMKNVTCENT", "protein stability index": 4.05}
{"variant": "HISSCKLGPQVSLDPMKNVTCENW", "protein stability index": 2.93}
{"variant": "HISSCKLGPQVSLSPMKNVTCENG", "protein stability index": 3.65}
{"variant": "HISSCKLGPQVSLAPMKNVTCENG", "protein stability index": 3.51}
{"variant": "HISSCKLGPQVSLGPMKNVTCENG", "protein stability index": 3.45}
{"variant": "HISSCKLGPQVSLPPMKNVTCENG", "protein stability index": 3.78}
{"variant": "HISSCKLGPQVSLRPMKNVTCENG", "protein stability index": 3.33}
{"variant": "HISSCKLGPQVSLIPMKNVTCENG", "protein stability index": 3.44}
{"variant": "HISSCKLGPQVSLYPMKNVTCENG", "protein stability index": 2.8}
{"variant": "HISSCKLGPQVSLWPMKNVTCENG", "protein stability index": 2.14}
{"variant": "HISSCKLGPQVSLDPNKNVTCENG", "protein stability index": 4.61}
{"variant": "HISSCKLGPQVSLDPHKNVTCENG", "protein stability index": 4.11}
{"variant": "HISSCKLGPQVSLDPQKNVTCENG", "protein stability index": 4.43}
{"variant": "HISSCKLGPQVSLDPAKNVTCENG", "protein stability index": 4.15}
{"variant": "HISSCKLGPQVSLDPRKNVTCENG", "protein stability index": 4.47}
{"variant": "HISSCKLGPQVSLDPFKNVTCENG", "protein stability index": 3.74}
{"variant": "HISSCKLGPQVSLDPGKNVTCENG", "protein stability index": 4.22}
{"variant": "HISSCKLGPQVSLDPLKNVTCENG", "protein stability index": 3.78}
{"variant": "HISSCKLGPQVSLDPIKNVTCENG", "protein stability index": 3.68}
{"variant": "HISSCKLGPQVSLDPMKNHTCENG", "protein stability index": 3.89}
{"variant": "HISSCKLGPQVSLDPMKNSTCENG", "protein stability index": 4.38}
{"variant": "HISSCKLGPQVSLDPMKNYTCENG", "protein stability index": 3.76}
{"variant": "HISSCKLGPQVSLDPMKNQTCENG", "protein stability index": 4.08}
{"variant": "HISSCKLGPQVSLDPMKNMTCENG", "protein stability index": 3.55}
{"variant": "HISSCKLGPQVSLDPMKNLTCENG", "protein stability index": 3.77}
{"variant": "HISSCKLGPQVSLDPMKNKTCENG", "protein stability index": 4.13}
{"variant": "HISSCKLGPQVSLDPMKNATCENG", "protein stability index": 4.32}
{"variant": "HISSCKLGPQVSLDPMKNETCENG", "protein stability index": 4.44}
{"variant": "HISSCKLGPQVSLDPMKNFTCENG", "protein stability index": 2.95}
{"variant": "HISSCKLGPQVSLDPMKNRTCENG", "protein stability index": 4.26}
{"variant": "HICSCKLGPQVSLDPMKNVTCENG", "protein stability index": 2.78}
{"variant": "HIGSCKLGPQVSLDPMKNVTCENG", "protein stability index": 4.2}
{"variant": "HIESCKLGPQVSLDPMKNVTCENG", "protein stability index": 4.24}
{"variant": "HIYSCKLGPQVSLDPMKNVTCENG", "protein stability index": 2.62}
{"variant": "HIHSCKLGPQVSLDPMKNVTCENG", "protein stability index": 3.51}
{"variant": "HILSCKLGPQVSLDPMKNVTCENG", "protein stability index": 3.19}
{"variant": "HISSCKLGPQVTLDPMKNVTCENG", "protein stability index": 4.34}
{"variant": "HISSCKLGPQVALDPMKNVTCENG", "protein stability index": 4.3}
{"variant": "HISSCKLGPQVCLDPMKNVTCENG", "protein stability index": 3.43}
{"variant": "HISSCKLGPQVNLDPMKNVTCENG", "protein stability index": 3.9}
{"variant": "HISSCKLGPQVSLDNMKNVTCENG", "protein stability index": 4.11}
{"variant": "HISSCKLGPQVSLDIMKNVTCENG", "protein stability index": 3.41}
{"variant": "HISSCKLGPQVSLDCMKNVTCENG", "protein stability index": 3.43}
{"variant": "HISSCKLGPQVSLDLMKNVTCENG", "protein stability index": 3.62}
{"variant": "HISSCKLGPQVSLDVMKNVTCENG", "protein stability index": 3.88}
{"variant": "HISSCKLGPQVSLDPMKNVTCRNG", "protein stability index": 3.5}
{"variant": "HISSCKLGPQVSLDPMKNVTCYNG", "protein stability index": 2.44}
{"variant": "HISSCKLGPQVSLDPMKNVTCWNG", "protein stability index": 2.09}
{"variant": "HISSCKLGPQVSLDPMKNVTCFNG", "protein stability index": 2.46}
{"variant": "HISSCKLGPQVSLDPMKNVTCCNG", "protein stability index": 3.22}
{"variant": "HISSCKLGPQVSLDPMKNVTCKNG", "protein stability index": 3.89}
{"variant": "HISSCKLGPQVSLDPMKNVTCLNG", "protein stability index": 2.58}
{"variant": "HISSCKLGPQVSLDPMKNVTCGNG", "protein stability index": 3.17}
{"variant": "HISSCKLGPQVSLDPMKNVTCMNG", "protein stability index": 2.9}
{"variant": "HISSCKLGPQVSLDPMKNVTCSNG", "protein stability index": 3.5}
{"variant": "HISSCKLGPQVSLDPMKNVTCHNG", "protein stability index": 3.18}
{"variant": "HISSCKLGPQVSLDPMKNVTCNNG", "protein stability index": 3.35}
{"variant": "HISSCKLGPQVSLDPMKNVTCTNG", "protein stability index": 3.23}
{"variant": "HISSCKLFPQVSLDPMKNVTCENG", "protein stability index": 3.04}
{"variant": "HISSCKLEPQVSLDPMKNVTCENG", "protein stability index": 4.53}
{"variant": "HISSCKLHPQVSLDPMKNVTCENG", "protein stability index": 3.63}
{"variant": "HISSCKLNPQVSLDPMKNVTCENG", "protein stability index": 4.07}
{"variant": "HISSCKLYPQVSLDPMKNVTCENG", "protein stability index": 3.4}
{"variant": "HISSCKLRPQVSLDPMKNVTCENG", "protein stability index": 3.29}
{"variant": "HISSCKLQPQVSLDPMKNVTCENG", "protein stability index": 3.7}
{"variant": "HISSCKLCPQVSLDPMKNVTCENG", "protein stability index": 3.15}
{"variant": "HISSCKLDPQVSLDPMKNVTCENG", "protein stability index": 4.34}
{"variant": "AISSCKLGPQVSLDPMKNVTCENG", "protein stability index": 3.87}
{"variant": "WISSCKLGPQVSLDPMKNVTCENG", "protein stability index": 3.42}
{"variant": "EISSCKLGPQVSLDPMKNVTCENG", "protein stability index": 3.96}
{"variant": "TISSCKLGPQVSLDPMKNVTCENG", "protein stability index": 4.07}
{"variant": "FISSCKLGPQVSLDPMKNVTCENG", "protein stability index": 2.01}
{"variant": "HISSCKYGPQVSLDPMKNVTCENG", "protein stability index": 3.74}
{"variant": "HISSCKDGPQVSLDPMKNVTCENG", "protein stability index": 4.15}
{"variant": "HISSCKFGPQVSLDPMKNVTCENG", "protein stability index": 4.1}
{"variant": "HISSCKIGPQVSLDPMKNVTCENG", "protein stability index": 4.57}
{"variant": "HISSCKVGPQVSLDPMKNVTCENG", "protein stability index": 4.19}
{"variant": "HISSCKTGPQVSLDPMKNVTCENG", "protein stability index": 4.54}
{"variant": "HISSCKQGPQVSLDPMKNVTCENG", "protein stability index": 4.32}
{"variant": "HISSCKAGPQVSLDPMKNVTCENG", "protein stability index": 4.62}
{"variant": "HISSCKPGPQVSLDPMKNVTCENG", "protein stability index": 4.51}
{"variant": "HISSCKNGPQVSLDPMKNVTCENG", "protein stability index": 4.37}
